Reference: the supplement of paper PMC10201428
± gives the standard deviation of the averaged measurements.

Tested on: VchCAST RNA-guided transposition machinery (E. coli BL21(DE3) host, lacZ target)
Experiment: relative integration efficiency (T-LR orientation) vs wild-type transposon end (log2 (normalized fold change)); transposon end mutated: right end (5 bp flank + 75 bp right end); higher = more efficient transposition
Method: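 Pooled, barcoded VchCAST (Tn6677) mini-transposon donor libraries; each variable transposon-end sequence sits in a fixed pDonor mini-transposon context (10-bp barcode and cargo not included). Left- or right-end libraries were co-transformed with pEffector (TniQ-Cascade, TnsABC, lacZ crRNA, T7, 0.1 mM IPTG) into E. coli BL21(DE3) and grown 18 h at 37 C. T-LR and T-RL junction amplicons were sequenced; output/input barcode fold change was normalised to the mean of four wild-type barcodes and log2-transformed. Two biological replicates; zero-count/undetected variants carry floor values (-10 / -15), censored here. Barcode uncoupling by PCR recombination adds noise.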

Sequence	relative integration efficiency (log2)
ACATTTGTTGATACAACCATAAAATGATCACCCATAAATTGATAATTATCACACCCATAAATTGATATTGCCTCTGATCATAGTCAGACCAACATTGCTACGACCCGTATTCGCACCGACACTGACT	-0.722 ± 0.27
ACATTTGTTCATACAACCCTAAAATGATAATTACACCCATAAATGGATCATTATCACCCCCAATTTAACTATAACGCTCTGATCATAGTCAGACCAACATTGCTACGACCCGTATTCGCACCGACAC	-3.98 ± 0.81
ACATTTGTTGATACAACCATAAAATGATTTAAACACCCATAAATTGATAATTATCACACCCATAAATTGATATTGCCTCTGATCATAGTCAGACCAACATTGCTACGACCCGTATTCGCACCGACAC	-0.234 ± 0.29
ACATTTGTTGATACAACCATAAAATGATAATTACACCCATTAATTGATAATAATGACACCGAATTTAACTATAACGCTCTGATCATAGTCAGACCAACATTGCTACGACCCGTATTCGCACCGACAC	2.24 ± 0.16
ACATTTGTTGATACAACCATAAAATGATAATTACACCCATAAATTGATAATTATCACACCCATAAATTGATATTGCCTCTAAAGTGTACAACACTTGAGAAAGTTTACTACAGGTATGCACCGACAC	0.483 ± 0.017
ACATTTGTTGATAAAACCATAAAATGATTATTAGAAACCATAATCTGAAATTATCACACCCATAAATTGATATTGCCTCTGATCATAGTCAGACCAACATTGCTACGACCCGTATTCGCACCGACAC	-2.22 ± 0.34
ACATTTGTTGATACAACCATAAAGTGATATTTACAACCATAAAATGATAATTATCAGTGGGTATTTAACTATAACGCTCTGATCATAGTCAGACCAACATTGCTACGACCCGTATTCGCACCGACAC	2.86 ± 0.12
ACATTTGTTGATACACCCATAAATTGATATTGCCAACCATATATTGATATCTCTCACAACCATAAAATGATAATTACTCTGATCATAGTCAGACCAACATTGCTACGACCCGTATTCGCACCGACAC	-0.955 ± 0.52
ACATTTGTTGATACAACCATAAAGTGATATTTACACCCATAAATTGATAATTATCACACCCATAAATTGATAATTACTCTGATCATAGTCAGACCAACATTGCTACGACCCGTATTCGCACCGACAC	-0.191 ± 0.54
ACATTTGTTGATACAACCATAAAATGATAATTACACCCATAAATTGCGAATTATCACACCCATAAATTGATATTGCCTCTGATCATAGTCAGACCAACATTGCTACGACCCGTATTCGCACCGACAC	-0.682 ± 0.11
ACATTTGTTGATACAACCATAAAATGATAATTACACCCCGCCCGGTCGCCGGCGACACAAACGCCCGGTCGCGGTAAGAGGATCATAGTCAGACCAACATTGCTACGACCCGTATTCGCACCGACAC	0.746 ± 0.13
ACATTTGTTGATACAACCATAAAATGATAATTACCCCCATCAATTGATAATTATCCCACCCAATTTAACTATAACGCTCTGATCATAGTCAGACCAACATTGCTACGACCCGTATTCGCACCGACAC	0.511 ± 0.036
ACATTTGTTGATACAACCATAAGTTGATATTTTCAACCATATATTGATATCTCTCACACCCATAAATTGATAATTACTCTGATCATAGTCAGACCAACATTGCTACGACCCGTATTCGCACCGACAC	0.134 ± 0.11
ACATTTGATGATACTACCATTTAATGATAATAACACCCATAAAATGATAATTATCACACCCAATTTAACTATAACGCTCTGATCATAGTCAGACCAACATTGCTACGACCCGTATTCGCACCGACAC	-0.158 ± 0.16
ACATTTGTTGATACAACCATAAAATGATAATTACACCCATATTAAGATAATTATCACACCCATAAATTGATATTGCCTCTGATCATAGTCAGACCAACATTGCTACGACCCGTATTCGCACCGACAC	-0.688 ± 0.12
ACATTTGTTGATTGTTCCATAAAATGATAATTACACCCATAAATTGATAATTATCACACCCATAAATTGATATTGCCTCTGATCATAGTCAGACCAACATTGCTACGACCCGTATTCGCACCGACAC	-1.3 ± 0.53

Sequence	relative integration efficiency (log2)
ACATTTGTTGATACAACCATAAAATGATAATTACACCCATAAATTCATCATTATCACACCCAATTTAACTATAACGCTCTGATCATAGTCAGACCAACATTGCTACGACCCGTATTCGCACCGACAC	1.42 ± 0.023
ACATTTGTTGATACAACCATAAAATCATCATTACCCCCATCAATTGATAATTATCACACCCCATTTAACTATAACGCTCTGATCATAGTCAGACCAACATTGCTACGACCCGTATTCGCACCGACAC	-1.95 ± 0.53
ACATTTGTTGATACAACCATAAAATGATAATTAACAACATAAATTGATAATTATCACACCCATAAATTGATATTGCCTCTGATCATAGTCAGACCAACATTGCTACGACCCGTATTCGCACCGACAC	-0.921 ± 0.31
ACATTTGTTGATACAACCATATATTGATATCTCCAACCATATATTGATATCTCTCACAACCATATATTGATATCTCCTCTGATCATAGTCAGACCAACATTGCTACGACCCGTATTCGCACCGACAC	-0.402 ± 0.094
ACATTTGTTGATACAACCATAAAATCATAATTACCCCCATAAATTGATAATTATCCCACCCAATTTAACTATAACGCTCTGATCATAGTCAGACCAACATTGCTACGACCCGTATTCGCACCGACAC	3.39 ± 0.37
ACATTTGTTGATCACCCCATAAAATGATAATTACACCCATAAATTGATAATTATCACACCCATAAATTGATATTGCCTCTGATCATAGTCAGACCAACATTGCTACGACCCGTATTCGCACCGACAC	-1.51 ± 0.22
ACATTTGTTGATACAACCATAAAATGATAATTACTCTGATCATAGTCAGACACCCATAAATTGATAATTATCAGTGGGTATTTAACTATAACGCCAACATTGCTACGACCCGTATTCGCACCGACAC	1.66 ± 0.32
ACATTTGTTGAATGTACCATAAAATGATAATTACACCCATAAATTGATAATTATCACACCCATAAATTGATATTGCCTCTGATCATAGTCAGACCAACATTGCTACGACCCGTATTCGCACCGACAC	-1.92 ± 0.32
ACATTTGTTGATACAACCATAAAATGATAATTACACCCATAAATTGATAATTATCCACCCATAAATTGATATTGCCTCTGATCATAGTCAGACCAACATTGCTACGACCCGTATTCGCACCGACACT	0.607 ± 0.072
ACATTTGTTGATACAACCATAAAATCATAATTCACCCATAAATTGATAATTATCACACCCACATTTAACTATAACGCTCTGATCATAGTCAGACCAACATTGCTACGACCCGTATTCGCACCGACAC	-0.0705 ± 0.067
ACATTTGTTGATACAACCATAAAAGGATCATTCACCCATAAATTGATAATTATCACACCCACATTTAACTATAACGCTCTGATCATAGTCAGACCAACATTGCTACGACCCGTATTCGCACCGACAC	-0.0129 ± 0.14
ACATTTGTGGATACAACCCTAAAATGATAATTACACCCATAAATTCATCATTATCACACCCAATTTAACTATAACGCTCTGATCATAGTCAGACCAACATTGCTACGACCCGTATTCGCACCGACAC	-1.67 ± 0.21
ACATTTGTTGATACACCCATAAATTGATAATTACAACCATAAAGTGATATTTATCACAACCATATATTGATATCTCCTCTGATCATAGTCAGACCAACATTGCTACGACCCGTATTCGCACCGACAC	0.318 ± 0.42
ACATTTGTTTATACAACCATAAAATGATAATTACACCCATAAATTCATAATTATCACACCCAATTTAACTATAACGCTCTGATCATAGTCAGACCAACATTGCTACGACCCGTATTCGCACCGACAC	-0.939 ± 0.036
ACATTTGTTGATACAACCATAAAATCATCATTACACCCATAAATTGATAATTATCACACCCAATTTAACTATAACGCTCTGATCATAGTCAGACCAACATTGCTACGACCCGTATTCGCACCGACAC	0.617 ± 0.13
